Here are results for 6 molecules from US20240117073A1, “METHODS OF TREATING NEOPLASTIC ASTROCYTOMA” (Ludwig Institute for Cancer Research Ltd., priority 2009, published 2024).

The target of assay [1] is wtEGFR-FLAG on Ba/F3 cells (human) (UniProt P00533). The assay can be described thus: FACS median fluorescence, Ba/F3 cells, reference M2 anti-FLAG.
The target in assay [2] is C271A/C283A-EGFR on Ba/F3 cells (human) (UniProt P00533). Put plainly: FACS median fluorescence, Ba/F3 cells, average for four independent clones, reference M2.
For assay [3], the target named is amplified / overexpressed wild-type EGFR (human) (UniProt P00533). Put plainly: Scatchard analysis, 125I-labelled 528, A431 cells.
In assay [4] the target is de2-7 EGFR (human) (UniProt P00533). The assay can be described thus: IHC glioblastoma, amplified EGFR with de2-7 EGFR.
Assay [5] addresses amplified / overexpressed wild-type EGFR (human) (UniProt P00533). Put plainly: IHC glioblastoma, amplified EGFR, no de2-7 EGFR.
The test system of assay [6] is DU145 xenografts. The assay can be described thus: established xenograft model. The class given is in vivo, nude mice. To be noted: day 67; 1 mg i.p. From the text:
Xenografts were allowed to establish for 18 days before therapy commenced (3 times a week for 3 weeks on days indicated). At this time the average tumor volume was 90 mm^3 (FIG. 68D).

Assay [7] relates to EGFR fragments. The assay can be described thus: Western blot of GH/EGFR fragment fusion proteins. It is filed as binding, human. How it is done: The day prior to transfection with these fragments, human 293T embryonic-kidney fibroblasts were seeded at 8×10^5 per well in 6-well tissue culture plates containing 2 ml of media. Cells were transfected with 3-4 μg of plasmid DNA complexed with Lipofectamine™ 2000 (Invitrogen) according to the manufacturer's instructions. […] Parallel membranes were probed overnight with mAb 9B11 (1:5000, Cell Signaling Technology, Danvers, Massachusetts) to detect the c-myc epitope. Membranes were washed in TBST, and incubated in blocking buffer containing horseradish peroxidase-conjugated rabbit anti-mouse IgG (Biorad) at a 1:5000 dilution for 2 h at room temperature. Blots were then washed in TBST, and developed using autoradiographic film following incubation with Western Pico Chemiluminescent Substrate (Pierce, Rockford, Illinois).
(§1) Expression of EGFR proteins on the yeast cell surface was performed as previously described (Johns et al., 2004).
Background: In western blotting, separated proteins are transferred to a membrane and probed.

For assay [8], the system named is normal human liver sections. The assay can be described thus: immunohistochemistry with mAb175. How it is done:
(§2) Bound antibody was detected using the Dako Envision™+HRP detection system as per manufacturer's instructions. Sections were finally rinsed with water, counterstained with hematoxylin and mounted.
The U87MG cell line only expresses modest levels of the wild-type EGFR (FIG. 66A) and has no detectable EGFR autocrine loop.

Assay [9] relates to EGFR fragments displayed on yeast. Put plainly: yeast surface display of EGFR fragments. It is filed as binding, human. How it is done:
as §1
Briefly, transformed colonies were grown at 30° C. in minimal media containing yeast nitrogen base, casein hydrolysate, dextrose, and phosphate buffer pH 7.4, on a shaking platform for approximately one day until an OD600 of 5-6 was reached. Yeast cells were then induced for protein display by transferring to minimal media containing galactose, and incubated with shaking at 30° C. for 24 h. Cultures were then stored at 4° C. until analysis. Raw ascites fluid containing the c-myc monoclonal antibody 9E10 was obtained from Covance (Richmond, CA). 1×10^6 yeast cells were washed with ice-cold FACS buffer (PBS containing 1 mg/ml BSA) and incubated with either anti-c-myc ascites (1:50 dilution), or human EGFR monoclonal antibody (10 μg/ml) in a final volume of 50 μl, for 1 hr at 4° C. The cells were then washed with ice cold FACS buffer and incubated with phycoerythrin-labelled anti-mouse IgG (1:25 dilution), in a final volume of 50 μl for 1 h at 4° C., protected from light. After washing the yeast cells with ice-cold FACS buffer, fluorescence data was obtained with a Coulter Epics XL flow cytometer (Beckman-Coulter), and analyzed with WinMDI cytometry software (J. Trotter, Scripps University). […]

Assay [10] has as its system xenograft A431. Put plainly: immunohistochemistry of xenograft sections. Details: species or system human. How it is done: (§3) Xenografts were excised and bisected. One half was fixed in 10% formalin/PBS before being embedded in paraffin. Four micron sections were then cut and stained with haematoxylin and eosin (H&E) for routine histological examination. The other half was embedded in Tissue Tek® OCT compound (Sakura Finetek, Torrance, CA), frozen in liquid nitrogen and stored at −80° C. Thin (5 micron) cryostat sections were cut and fixed in ice-cold acetone for 10 min followed by air drying for a further 10 min. Sections were blocked in protein blocking reagent (Lipshaw Immunon, Pittsburgh U.S.A.) for 10 min and then incubated with biotinylated primary antibody (1 mg/ml), for 30 min at room temperature (RT). All antibodies were biotinylated using the ECL™ protein biotinylation module (Amersham, Baulkham Hills, Australia), as per the manufacturer's instructions. After rinsing with PBS, sections were incubated with a streptavidin horseradish peroxidase complex for a further 30 min (Silenus, Melbourne, Australia). Following a final PBS wash the sections were exposed to 3-amino-9-ethylcarbozole (AEC) substrate (0.1 M acetic acid, 0.1 M sodium acetate, 0.02 M AEC (Sigma Chemical Co., St Louis, MO)) in the presence of hydrogen peroxide for 30 min. Sections were rinsed with water and counterstained with hematoxylin for 5 min and mounted.
as §2

For assay [11], the system named is xenograft U87MG (native). Put plainly: immunohistochemistry of xenograft sections. Details: species or system human. How it is done:
as §3, §2

The subject of assay [12] is DU145 cells. Put plainly: FACS binding to cell lines. The class given is cell-based, human. From the text:
Clearly, mAb806 and mAb175 can recognize only a small proportion of the EGFR on cells in the presence of an autocrine stimulation loop.
A general note: In flow cytometry, cells or beads pass a laser one at a time.

The target of assay [13] is EGFR of A431 cells (Homo sapiens, UniProt P00533). Put plainly: ELISA of 806 reactivity in lysate of AG1478 treated cells. The class given is cell-based. To be noted: increasing amounts of AG1478 (0.5 μM and 5 μM). On the technique in general: In an ELISA, binding on a coated surface is turned into a signal by an enzyme label.
For assay [14], the system named is A431 xenografts. Put plainly: combination therapy with AG1478, preventative model. The class given is in vivo, mice. The note with it: 0.1 mg mAb806; 400 μg AG1478. How it is done:
AG1478 (4-(3-Chloroanilino)-6,7-dimethoxyquinazoline) is a potent and selective inhibitor of the EGFR kinase versus HER2-neu and platelet-derived growth factor receptor kinase (Calbiochem Cat. No. 658552). […] The results are illustrated in FIG. 12. […] 400 μg AG1478 was administered at 0, 2, 4, 7, 9, and 11 days post xenograft.

Assay [15] has as its target EGFR peptide 287-302 (806 peptide epitope) (human). The assay can be described thus: BIAcore, peptide 287-302 immobilised by thiol coupling.
The target is the same in assay [16]. The assay can be described thus: BIAcore, peptide 287-302 immobilised by Pms-Ser coupling.
The target is the same in assay [17]. Put plainly: BIAcore, peptide 287-302 immobilised by amine coupling.
Assay [18] deals with xenograft U87MGΔEGFR. The assay can be described thus: immunohistochemistry of xenograft sections. Details: species or system human.
Assay [19] addresses T1, denatured soluble domain of the EGFR (sEGFR) (Homo sapiens, UniProt P00533).
T1 construct: sEGFR is the recombinant extracellular domain (amino acids 1-621) of the wild-type EGFR; made in house; host or cells: CHO cells
The assay can be described thus: competition ELISA. The class given is binding. To be noted: after unlabeled blocking antibody. How it is done: Briefly, the denatured soluble domain of the EGFR (sEGFR) was coated on to ELISA plates. The unlabeled 124 or 1133 antibodies were then added across the plate in increasing concentrations.

For assay [20], the target named is T2, EGFR peptide 287-302 (806 peptide epitope) (human, not fully specified (bridges); also: oxidized form in the crystals).
T2 construct: Immobilised by amine, thiol or Pms-Ser coupling; oxidized form in the crystals
T2 peptide: CGADSYEMEEDGVRKC
Put plainly: BIAcore, immobilised peptide, 200 nM antibody.

The test system of assay [21] is established A431 xenografts. The assay can be described thus: in vivo 806 therapy study. To be noted: 6 x 1 mg IP, versus PBS. Further details: species or system BALB/c nude mice. How it is done: (§4) To establish xenografts, mice were injected subcutaneously into the right and left inguinal mammary line with 1×10^6 A431 […] cells or 1×10^6 U87MG.de2-7 glioma cells in 100 μl of PBS. Tumor volume (TV) was calculated by the formula [(length×width^2)/2] where length was the longest axis and width the measurement at right angles to length. […] Therapy was administered on days 6, 8, 11, 13, 15 and 18 for A431, and days 4, 6, 8, 11, 13 and 15 for the U87MG.de2-7 cell lines respectively. Mean±SEM tumor volumes until termination of the experiments due to ethical considerations of tumor burden are presented in FIG. 91 for the A431 xenograft until day 25, and in FIG. 92 for U87MG.de2-7 xenografts until day 31.

The test system of assay [22] is established U87MG.de2-7 xenografts. The assay can be described thus: in vivo 806 therapy study. Further details: species or system BALB/c nude mice. To be noted: 6 x 1 mg IP, versus PBS. As for the experimental part: as §4

“Also recorded” adds a separate entry of the source. Where no end group is shown, it is not given here.

Regarding 528 antibody, the ratio of antibody binding mAb 528/M2 in [1] worked out at 1.37; in assay [2] it was 1.08. For the same molecule, the binding sites per cell (sites per cell) in [3] came to 2e+06. The percent of immunoreactive cells in assay [4] and in assay [5] was more than 75% in each case.
Consider “mAb175: murine monoclonal antibody, SEQ ID NO:129 and SEQ ID NO:134”, for which the mean tumor volume in assay [6] was 815 mm^3. The “reactivity with EGFR fragments” value in assay [7] was “reacted with both the 274-501 and 282-501 EGFR fragments; also recorded: did not detect fragments commencing at amino acid 290 or 298; also recorded: a 274-501 EGFR fragment with the mAb806 epitope deleted (Δ287-302) was also negative for mAb175 binding”. In addition, in assay [8], the staining entry is recorded as “does not bind”. Besides, the “binding to EGFR fragments” value in [9] is recorded as “recognized the yeast fragment 273-621; also recorded: not to fragments 1-176, 1-294, 294-543, or 475-621; also recorded: binds to the denatured fragment of the 273-621”. Also, the immunohistochemical staining entry in assay [10] is on record as “stains”; in [11], “does not stain”. In [12], the FACS binding result is “bind to DU145 cells”.
Turning to `COc1cc2ncnc(Nc3cccc(Cl)c3)c2cc1OC` [AG1478, 4-(3-Chloroanilino)-6,7-dimethoxyquinazoline, reference compound], the “mAb806 binding to EGFR in cell lysate” value in [13] is recorded as “significantly increased”. Also, the tumor volume result in assay [14] is recorded as “significant reduction of tumor volume”.
Broadly, the Kd is the equilibrium constant for the complex coming apart. For mAb175 (antibody), the Kd in assay [15] was 143 nM; in assay [16], 35 nM; in assay [17] it was 154 nM.

B1: mAb1133 (antibody, mouse IgG2a, V domains shown)
VH: DVQLQGSGPSLVKPSQSLSLTCTVTGYSITSDYAWNWIRQFPGNKLEWMGYISYSGNTRYNPSLRSRISITRDTSKNQFFLQLNSVTTEDTATYYCATAGRGFPYWGQGTLVTVSA
VL: DILMTQSPSSMSVSLGDTVNITCHSSQDINSNIGWLQQKPGKSFKGLIYHGTNLDDGVPSRFSGSGSGADYSLTISSLESEDFADYYCVQYGQFPWTFGGGTKLEIKR
notes: Mouse IgG2a; variable domains only
In the case of B1, the figures for the immunohistochemical staining result in assay [18] and in [10] were “pos” and “pos. (predominantly”, respectively. Besides, the “Binding of biotin-labeled 806” value in [19] is on record as “None”. Besides, the “Binding to mAb806 peptide (RU), maximal” value in assay [20] turned out to be 800 RU.

B2: hu806: humanized (veneered) 806 antibody, SEQ ID NO:42 and SEQ ID NO:47 (antibody, V domains shown)
VH: MDWTWRILFLVAAATGVHSQVQLQESGPGLVKPSQTLSLTCTVSGYSISSDFAWNWIRQPPGKGLEWMGYISYSGNTRYQPSLKSRITISRDTSKNQFFLKLNSVTAADTATYYCVTAGRGFPYWGQGTLVTVSS
VL: MDWTWRILFLVAAATGVHSDIQMTQSPSSMSVSVGDRVTITCHSSQDINSNIGWLQQKPGKSFKGLIYHGTNLDDGVPSRFSGSGSGTDYTLTISSLQPEDFATYYCVQYAQFPWTFGGGTKLEIKR
Regarding B2, the xenograft growth entry was “marked reduction in A431 xenograft growth” in assay [21] and “significant reduction in tumor growth by day 20” in assay [22].
